Measurements reported in US20090286727A1 (Ablynx, published 2009).

B1: VH4 16.1 (VHH)
VHH: QVQLQESGPGLVKPSQTLSLTCTVSGGSITTYRYYWSWIRQPPGKGLEWMGAIAYSGSTYYSPSLKSRTSISRDTTKNQFTLQLSSVTPEDTAVYYCARGRLGSWYYELNEYDYWGQGTQVTVSS
notes: The two are tied only by the clone number; Llama VH4-class Nanobody, purified by IMAC as a His6-tagged protein; also called anti-IL6 VH4 Nanobody 16.1; VH4 cl16; not shown: His6 tag from vector pAX51
B2: VH4 20.1 (VHH)
VHH: QVQLQESGPGLVKPSQTLSLTCTVSGGSITTYNYAWSWIRQPPGKGLEWMGVIAYDGSTYYSPSLKSRTSISRDTSKNQFSLQLSSVTPEDTAVYYCARGTVGSWYDEFPPRYDYWGQGTQVTVSS
notes: The two are tied only by the clone number; also called anti-IL6 VH4 Nanobody 20.1; VH4 Nanobody 20.1; not shown: His6 tag from vector pAX51

Target: T1, human IL6 (human, UniProt P05231 30-212, biotinylated in the ELISA (bio-IL6); site not given)
T1 construct: In the ELISA it was biotinylated and captured on a neutravidin-coated plate; In Biacore it was on a CM5 sensor chip; also called bio-IL6; biotinylated human IL6
Experiment: SPR, Biacore 3000, human IL6 on CM5 chip, Nanobody 3.75 nM to 2 uM
Experimental: Binding of VH4 Nanobodies to different antigens was evaluated by surface plasmon resonance on a Biacore 3000 instrument. […]

Row | Binder | Kd [nM] | koff [s⁻¹] | kon [M⁻¹ s⁻¹]
1 | B1 | 19 | 0.00036 | 19000
2 | B2 | 46 | 0.0018 | 40000
